Experimental data reported in the Immune Epitope Database (IEDB).
Blank lines part the entries; values can stand above or below the sequence they belong to.

Columns and labels:
HLA-A*02:01 [1] = assay: IEDB peptide-MHC binding, purified MHC/competitive/fluorescence; filed as Kd, often an IC50 or EC50 that approximates it; ≥ and ≤ were set here for values at or beyond the usual limits of such assays
HLA-A*02:03 [2] = assay: as above
HLA-A*02:11 = assay: as above
HLA-A*02:12 = assay: as above
HLA-A*02:16 = assay: as above
HLA-A*02:19 = assay: as above
HLA-A*03:01 = assay: as above
HLA-A*24:03 = assay: as above; settings: source organism: Escherichia coli F11
HLA-A*26:01 = assay: as above
HLA-A*29:02 = assay: as above
HLA-A*68:02 [3] = assay: as above
HLA-A*69:01 = assay: as above
HLA-B*15:01 [4] = assay: as above
HLA-B*15:17 = assay: as above
HLA-B*18:01 = assay: as above
HLA-B*27:03 = assay: as above
HLA-B*39:01 = assay: as above
HLA-B*46:01 = assay: as above
HLA-B*51:01 [5] = assay: as above
HLA-B*57:01 = assay: as above
HLA-B*51:01 [6] = assay: IEDB peptide-MHC binding, purified MHC/direct/fluorescence; filed as Kd, often an IC50 or EC50 that approximates it; ≥ and ≤ were set here for values at or beyond the usual limits of such assays
HLA-B*08:01 = assay: IEDB peptide-MHC binding, purified MHC/competitive/radioactivity; filed as Kd, often an IC50 or EC50 that approximates it; ≥ and ≤ were set here for values at or beyond the usual limits of such assays
HLA-B*35:01 = assay: as above; settings: source organism: Dengue virus 2 Jamaica/1409/1983
HLA-B*53:01 = assay: as above; settings: source organism: Dengue virus 2 Jamaica/1409/1983
HLA-B*07:02 = assay: IEDB peptide-MHC binding, purified MHC/direct/fluorescence; filed as Kd, often an IC50 or EC50 that approximates it; ≥ and ≤ were set here for values at or beyond the usual limits of such assays; settings: source organism: Vibrio cholerae
HLA-B*15:01 [7] = assay: as above; settings: source organism: Vibrio cholerae O395
HLA-A*02:01 [8] = assay: IEDB peptide-MHC binding, purified MHC/competitive/radioactivity; filed as Kd, often an IC50 or EC50 that approximates it; ≥ and ≤ were set here for values at or beyond the usual limits of such assays
HLA-A*02:17 = assay: as above
HLA-A*02:03 [9] = assay: as above
HLA-A*02:06 = assay: as above; settings: source organism: Dengue virus 3 Singapore/8120/1995
HLA-A*68:02 [10] = assay: as above; settings: source organism: Dengue virus 3 Singapore/8120/1995
HLA-A*32:01 = assay: as above; settings: source organism: Dengue virus 1 Singapore/S275/1990
HLA-B*58:01 = assay: as above
[11] = source organism: Escherichia coli F11
[12] = source organism: Brucella suis 1330
[13] = source organism: Dengue virus 2 Jamaica/1409/1983
[14] = source organism: West Nile virus
[15] = source organism: Dengue virus 3 China/80-2/1980
[16] = source organism: Vibrio cholerae 2740-80
[17] = source organism: Dengue virus 4 Philippines/H241/1956

- Kd (HLA-A*02:01 [1]; [11]): ≥ 20 µM
- Kd (HLA-A*02:03 [2]; [11]): ≥ 20 µM
- Kd (HLA-A*02:11; [11]): ≥ 20 µM
- Kd (HLA-A*02:12; [11]): 1.27 µM
- Kd (HLA-A*02:16; [11]): ≥ 20 µM
- Kd (HLA-A*02:19; [11]): ≥ 20 µM
- Kd (HLA-A*03:01; [11]): ≥ 20 µM
- Kd (HLA-A*24:03): ≥ 20 µM
- Kd (HLA-A*26:01; [11]): ≥ 20 µM
- Kd (HLA-A*29:02; [11]): ≥ 20 µM
- Kd (HLA-A*68:02 [3]; [11]): ≥ 20 µM
- Kd (HLA-A*69:01; [11]): ≥ 20 µM
- Kd (HLA-B*15:01 [4]; [11]): ≥ 20 µM
- Kd (HLA-B*15:17; [11]): ≥ 20 µM
- Kd (HLA-B*18:01; [11]): ≥ 20 µM
- Kd (HLA-B*27:03; [11]): ≥ 20 µM
- Kd (HLA-B*39:01; [11]): ≥ 20 µM
- Kd (HLA-B*46:01; [11]): ≥ 20 µM
- Kd (HLA-B*51:01 [5]; [11]): ≥ 20 µM
- Kd (HLA-B*57:01; [11]): ≥ 20 µM
Sequence: GSGDDTWLI

Sequence: TEWPQLKVA
- Kd (HLA-A*02:01 [1]; [12]): ≥ 20 µM
- Kd (HLA-A*02:03 [2]; [12]): ≥ 20 µM
- Kd (HLA-A*02:11; [12]): ≥ 20 µM
- Kd (HLA-A*02:12; [12]): ≥ 20 µM
- Kd (HLA-A*02:16; [12]): ≥ 20 µM
- Kd (HLA-A*02:19; [12]): ≥ 20 µM
- Kd (HLA-A*03:01; [12]): ≥ 20 µM
- Kd (HLA-A*26:01; [12]): ≥ 20 µM
- Kd (HLA-A*29:02; [12]): ≥ 20 µM
- Kd (HLA-A*68:02 [3]; [12]): ≥ 20 µM
- Kd (HLA-A*69:01; [12]): ≥ 20 µM
- Kd (HLA-B*15:01 [4]; [12]): ≥ 20 µM
- Kd (HLA-B*15:17; [12]): ≥ 20 µM
- Kd (HLA-B*18:01; [12]): 0.0336 µM
- Kd (HLA-B*27:03; [12]): ≥ 20 µM
- Kd (HLA-B*39:01; [12]): ≥ 20 µM
- Kd (HLA-B*46:01; [12]): ≥ 20 µM
- Kd (HLA-B*51:01 [5]; [12]): ≥ 20 µM
- Kd (HLA-B*57:01; [12]): ≥ 20 µM

Sequence: NPITLTAAL
- Kd (HLA-B*51:01 [6]; source organism: dengue virus type 2): ≥ 20 µM
- Kd (HLA-B*08:01; [13]): 0.0696 µM
- Kd (HLA-B*35:01): 0.0252 µM
- Kd (HLA-B*53:01): 0.377 µM

Sequence: LLRQHWLSL
- Kd (HLA-B*07:02): 0.013 µM
- Kd (HLA-B*15:01 [7]): 0.049 µM
- Kd (HLA-B*51:01 [6]; source organism: Vibrio cholerae): ≥ 20 µM

Sequence: KMEKASFIEV
- Kd (HLA-A*02:01 [8]; [13]): 0.143 µM
- Kd (HLA-A*02:17; [13]): 1.86 µM

Sequence: RVIDSRKSV
- Kd (HLA-B*51:01 [6]; [14]): 1.6 µM

Sequence: MIAGVLFTFV
- Kd (HLA-A*02:01 [8]; [15]): 0.0107 µM
- Kd (HLA-A*02:03 [9]; source organism: Dengue virus 3 Singapore/8120/1995): 0.00185 µM
- Kd (HLA-A*02:06): 0.00244 µM
- Kd (HLA-A*02:17; [15]): 0.423 µM
- Kd (HLA-A*68:02 [10]): 0.00175 µM

Sequence: QIMEVTARW
- Kd (HLA-A*32:01): 0.0563 µM
- Kd (HLA-B*58:01; source organism: Dengue virus 1 Singapore/S275/1990): 0.0186 µM

Sequence: LAVFPAMFW
- Kd (HLA-A*02:01 [1]; [16]): ≥ 20 µM
- Kd (HLA-A*02:03 [2]; [16]): ≥ 20 µM
- Kd (HLA-A*02:11; [16]): ≥ 20 µM
- Kd (HLA-A*02:12; [16]): ≥ 20 µM
- Kd (HLA-A*02:16; [16]): ≥ 20 µM
- Kd (HLA-A*02:19; [16]): ≥ 20 µM
- Kd (HLA-A*03:01; [16]): ≥ 20 µM
- Kd (HLA-A*26:01; [16]): ≥ 20 µM
- Kd (HLA-A*68:02 [3]; [16]): ≥ 20 µM
- Kd (HLA-A*69:01; [16]): ≥ 20 µM
- Kd (HLA-B*15:01 [4]; [16]): ≥ 20 µM
- Kd (HLA-B*18:01; [16]): ≥ 20 µM
- Kd (HLA-B*27:03; [16]): ≥ 20 µM
- Kd (HLA-B*39:01; [16]): ≥ 20 µM
- Kd (HLA-B*46:01; [16]): ≥ 20 µM
- Kd (HLA-B*57:01; [16]): 0.0379 µM

Sequence: ALWDVPSPA
- Kd (HLA-A*02:01 [8]; [17]): 0.00272 µM
- Kd (HLA-A*02:03 [9]; [17]): 0.0168 µM
- Kd (HLA-A*02:17; [17]): 0.885 µM

Sequence: CLWPKTHTL
- Kd (HLA-A*02:01 [8]; [17]): 0.0138 µM
- Kd (HLA-A*02:17; [17]): 0.251 µM
- Kd (HLA-B*08:01; [17]): 0.00574 µM

Sequence: IPTAAGKNL
- Kd (HLA-B*51:01 [6]; [14]): ≥ 20 µM

Sequence: PASAAQRRGR
- Kd (HLA-B*58:01; [17]): 15.4 µM
